The assay addresses tetrameric CDV attachment protein H-ectodomain (strain A75/17), with N-terminal tetrameric GCN4 motif (canine distemper virus (strain A75/17)). Kind of assay: cryo-EM structure.

One may read the stoichiometry N as the number of molecules, sites or subunits per partner or assembly. “tetrameric CDV attachment protein H-ectodomain (strain A75/17), with N-terminal tetrameric GCN4 motif (domain or fragment)”: the stoichiometry N came to 4.

For the origin of these results see paper PMC9963377.
